In PMC10470895:
Where “and” joins values, the source holds several entries; their conditions need not be identical. Equal entries are not always repeated. Values belong to the substance of their own block, whether it stands above or below them.

Tests used:
[1] = biological target: Pyruvate kinase M2 (PKM2) of the X. laevis oocyte nucleus (X. laevis (endogenous in oocytes)); assay: native gel or EMSA; oocyte nuclear homogenate, native PAGE as in Sen et al. (2016), 2x loading buffer with 200 mM KCl, Western blotting with anti-PKM2; Precision Plus markers
[2] = biological target: recombinant human GAPDH (glyceraldehyde 3-phosphate dehydrogenase) (human) (UniProt P04406); assay: native gel or EMSA; purified recombinant human GAPDH (1 ug) on Invitrogen 4-16% NativePAGE Bis-Tris gel, Western blotting; bands confirmed as GAPDH by second-dimension SDS-PAGE (about 36 kDa)
[3] = biological target: X. laevis oocyte GAPDH (glyceraldehyde 3-phosphate dehydrogenase, somatic form; GAPDH.s and GAPDH.l) (X. laevis (endogenous in oocytes)) (UniProt P51469); assay: native gel or EMSA; oocyte nuclear (up to 0.5 nuclei) and cytoplasmic (0.05 cytoplasm) homogenates in HR buffer on Invitrogen 4-16% NativePAGE Bis-Tris gel, Western blotting; compared with the bands of recombinant human GAPDH; second-dimension SDS-PAGE for cytoplasm

Chain of recombinant human GAPDH (glyceraldehyde 3-phosphate dehydrogenase), P04406 1-335 (enzyme; other documents disagree on this pair) (P04406 whole entry): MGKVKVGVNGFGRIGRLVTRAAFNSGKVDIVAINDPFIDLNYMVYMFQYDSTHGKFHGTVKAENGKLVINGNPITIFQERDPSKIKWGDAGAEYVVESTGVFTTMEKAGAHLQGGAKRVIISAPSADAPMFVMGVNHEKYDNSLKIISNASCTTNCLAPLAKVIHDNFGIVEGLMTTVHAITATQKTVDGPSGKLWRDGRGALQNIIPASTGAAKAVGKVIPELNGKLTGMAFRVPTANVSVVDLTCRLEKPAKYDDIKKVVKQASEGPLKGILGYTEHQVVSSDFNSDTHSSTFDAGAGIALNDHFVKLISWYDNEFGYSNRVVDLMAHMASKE
Chain of X. laevis oocyte GAPDH (glyceraldehyde 3-phosphate dehydrogenase, somatic form; GAPDH.s and GAPDH.l) (P51469 whole entry): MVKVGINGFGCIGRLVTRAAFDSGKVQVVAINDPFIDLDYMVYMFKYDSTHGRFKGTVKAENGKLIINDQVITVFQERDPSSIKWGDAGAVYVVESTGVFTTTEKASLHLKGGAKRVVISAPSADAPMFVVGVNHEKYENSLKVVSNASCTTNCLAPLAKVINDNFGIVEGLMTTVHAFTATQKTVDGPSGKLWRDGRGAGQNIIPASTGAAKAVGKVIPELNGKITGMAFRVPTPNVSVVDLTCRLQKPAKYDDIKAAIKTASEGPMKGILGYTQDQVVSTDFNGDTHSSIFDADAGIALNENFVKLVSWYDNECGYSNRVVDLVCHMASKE

stoichiometry N [1]: 4
Substance: Pyruvate kinase M2 (PKM2) of the X. laevis oocyte nucleus (enzyme)

stoichiometry N [2]: 2 and 4
Substance: recombinant human GAPDH (glyceraldehyde 3-phosphate dehydrogenase), P04406 1-335 (enzyme; other documents disagree on this pair)

stoichiometry N [3]: 4
Substance: X. laevis oocyte GAPDH (glyceraldehyde 3-phosphate dehydrogenase, somatic form; GAPDH.s and GAPDH.l) (from UniProt P51469 1-333) (enzyme)
